Among the data in the RNAGym collection of RNA variant scans (doi:10.7554/elife.90254) are self-cleavage values, retold here.

The chains are these.
B1: OR4K15 (parent)
chain: GUUAACGGUCAUAGGCCAUGGAAACUAGGAGCACCAUUUCGCUGCCAGUGAAGAAAUGAACAAAGAAAAUCUGGGCCAGGCAGGCAUCAAAAGAAAUAGUCUUGCGCUCAACCAGAAAGUCUGUAAUCAUUUUAAGGGUA

In the series the parent is B1. In words: self-cleavage, relative activity (ratio to wild type); higher = more cleavage; in vitro, sequencing; the parent is a self-cleaving ribozyme.
On to A118U U130G, for which the self-cleavage worked out at 0.71. A114U U122C: the self-cleavage came to 0.04.

As to A114U U122A, the self-cleavage was found to be 0.04. For A117G U132C, the self-cleavage is 1.85. Next, A117G U132A: 1.62; U122A A125G: 0.55. Turning to A118G G123A, the self-cleavage was determined as 0.58.

As for A118G A134G, the self-cleavage amounted to 0.71. Turning to G115A A116G, the self-cleavage is 0.23.

Regarding C112A A129G, the self-cleavage worked out at 0.01. Next, U122C A135C: 0.54.

On to A114U U127A, for which the self-cleavage was found to be 0.03. Next, A118U U124C: 0.45; U120G U130C: 1.46; U124A A140G: 0.65. Next, A116U G136A: 0.07.

As for U124C U132G, the self-cleavage was found to be 0.76. Next, U124C A129G: 0.8; U124C A129U: 0.94; U120C A140G: 1.07.

For the variant U122A A140G, the self-cleavage was found to be 1.17. On to G115A U131C, for which the self-cleavage worked out at 0.04. Next, A114G U127C: 0.11. Next, A125G A129G: 0.41; A125G U130C: 0.53; A117C U139C: 0.68.

Turning to U122A U139C, the self-cleavage is 0.94. Next, A118G U122C: 1.04; A114U: 0.06. Take A114G: the self-cleavage stood at 0.45. Next, A114C: 0.04; G119U U132C: 1.41; A117C A135G: 0.2. Next, U127C U130C: 0.69; A129G U130C: 1.73. Next, A129G U130A: 1.41; A111G U130A: 0.02.

A111G U130C: the self-cleavage amounted to 0.01. For G115A, the self-cleavage worked out at 0.12. Regarding G115C, the self-cleavage was determined as 0.14.

Take G115U: the self-cleavage was determined as 0.23. Next, A114U A129G: 0.06; A118G U130C: 0.73. Next, U124C: 0.62; U124A: 0.69; U124G: 0.98. Next, A125G G138A: 0.47.

On to A125G G138C, for which the self-cleavage is 0.83.

Consider C113A U130C, for which the self-cleavage worked out at 0. With U127C A135U, the self-cleavage came to 0.65. For the variant A118G U131C, the self-cleavage worked out at 0.63.

Turning to A117G, the self-cleavage was 1.4. A117U: the self-cleavage was 0.59. Regarding A117C, the self-cleavage is 0.55. Next, U124A U131C: 0.36; A116G U127A: 0.72. For the variant A116G U127C, the self-cleavage came to 0.31.

Take A111G G137A: the self-cleavage was determined as 0.02. Consider A129G A140G, for which the self-cleavage stood at 1.24. Next, C113A A116G: 0.01; U120A U133C: 1.41. As for A118C U139A, the self-cleavage is 1.24. Next, U124A A125G: 0.91; A111U A134G: 0.03; A118G A135G: 1.15. Next, A116G A126G: 0.12; A117G U120A: 2.78; C128A: 0.84. As for C128G, the self-cleavage amounted to 0.45. Next, C128U: 0.85; A117C U120A: 1.28. Regarding G119A U139C, the self-cleavage turned out to be 2.96. Next, A126G U133C: 1.2; A126U U130C: 1.08; A117G U133C: 1.85.

With A117G A118C, the self-cleavage turned out to be 0.24.

Take U127C G136A: the self-cleavage turned out to be 0.59.

For the variant A125U U133C, the self-cleavage was found to be 2.54.

With A126G U130C, the self-cleavage came out at 0.61.

With A126G U130G, the self-cleavage worked out at 1.19. Next, A126G: 0.84; A126U: 0.78; A126C: 0.52. Next, G115U A129U: 0.03; C121A A140G: 1.61. Next, U122A A126G: 0.67; U124C A125U: 1.37; A118G A126U: 1.22.

Regarding A118G A126C, the self-cleavage came to 0.84. Regarding A114U A125U, the self-cleavage was found to be 0.08.

With U120C U131A, the self-cleavage was 0.52. In the case of A111G U124A, the self-cleavage is 0.02. Next, A126G U131C: 1.14; A111G C121A: 0.03; A114U A116U: 0.03. For the variant U122C G137C, the self-cleavage came out at 1.67.

Turning to A114U U139A, the self-cleavage is 0.07.

As for C112G U120A, the self-cleavage came out at 0.01. Next, U122C G136U: 1.86; A116U U127G: 0.11; U122C U139C: 0.78.

For the variant U120A A129U, the self-cleavage turned out to be 0.57. Regarding A117G U127C, the self-cleavage stood at 0.77. Regarding A116G U131A, the self-cleavage was 0.25.

With U122G A129G, the self-cleavage is 1.33. Next, U127C U132G: 1.62; U127C U132C: 0.86. On to U122C U127A, for which the self-cleavage is 2.22. With C112U U122C, the self-cleavage is 0.01. In the case of A117G A140U, the self-cleavage is 1.12.

With A117G A140G, the self-cleavage was determined as 1.68. Next, U122C A140C: 1.25. As for G115U A126U, the self-cleavage was determined as 0.25. As for A111G A129G, the self-cleavage came to 0.01. For U122A U131G, the self-cleavage came to 0.73. Next, U122A U131C: 0.34; A114G U120C: 0.18; U127A U133C: 2.29.

For the variant U120C U124C, the self-cleavage is 0.34. Next, A116G A140U: 0.92. Next, A116G A140G: 0.97; A114G A117U: 0.4. Next, C112G: 0.02. Take C112A: the self-cleavage came out at 0.01.

For the variant C112U, the self-cleavage came out at 0.02. Next, A116G A117C: 0.1; A116G A117G: 0.55.

For the variant U124G A129C, the self-cleavage amounted to 0.33.

C121A U130C: the self-cleavage was 1.87. Next, U124A U130C: 0.1.

With A111U U122C, the self-cleavage is 0.08. Next, A118G U132A: 1.11; A118G U132C: 0.18; A118U A129G: 0.85.

On to A116U U122A, for which the self-cleavage was determined as 0.25. Next, U127A U139C: 2.29. Next, U120C U139A: 0.85; U120C U139G: 1.36; A117U A129G: 0.47. Next, A114C U122C: 0.01.

In the case of A117C U122C, the self-cleavage was 0.4.

Turning to A116G A134U, the self-cleavage is 0.2. Turning to A111G A118U, the self-cleavage was determined as 0. Consider A111G U122G, for which the self-cleavage came out at 0.01. Turning to A111G U122A, the self-cleavage amounted to 0.01. For the variant U122C A129G, the self-cleavage turned out to be 0.46. Next, A126G A129U: 0.83; A126C U127C: 0.21; A117U U132C: 0.88. In the case of G119A U132C, the self-cleavage was 2.46. Consider C113U A117G, for which the self-cleavage was 0.08. Next, U120C U122C: 0.32. Take A116C A129G: the self-cleavage stood at 0.05.

A118G U120C: the self-cleavage was 0.44. Next, A117U U127C: 0.61; A114G A118G: 0.36; A114U A118G: 0.05. With A117G A135G, the self-cleavage came out at 2.66.

As for C121U U130C, the self-cleavage worked out at 0.92. Next, U130A U139A: 0.89. Next, A117G C128U: 2.12; A118U: 0.61; A118C: 0.97. Next, A118G: 0.89; A118U U131C: 0.37. For A111G U120A, the self-cleavage was 0. For the variant A125U U130C, the self-cleavage came out at 1.66.
